Measurements from patent US8114641B2, “Methylbutanol as an advanced biofuel” (Synthetic Genomics, Inc., priority 2007, dated 2012).
Where two headings read alike, the source gives them in different places.

Legend:
[1] = 10% blend in gasoline; value based on literature review; cited from earlier work
[2] = Fuel properties of the neat fuel
[3] = Physical properties of alcohol fuels and gasoline; assay type: physicochemical
[4] = 10% blend in gasoline
[5] = based on literature review; cited from earlier work
[6] = Reductase activity of yeast ADH1 on various aldehydes; assay type: biochemical
Description: The ideal ADH for 2-MBO production should be able to reduce branched aldehydes. Therefore, the enzymes ADH1, ADH6, and ADH7 were overexpressed in yeast and were tested for their reductase activity on various aldehydes.

[7] = Keto acid decarboxylase activity on 2-keto butyrate, NADH dependent coupled assay with yeast ADH1; assay type: biochemical; conditions: for Vmax 2 keto butyrate / Km: crude extract; for Vmax 2 keto butyrate: S. cerevisiae PDC1 deletion host; for Km: enzyme expressed from p415 TEF in S. cerevisiae PDC1 deletion strain
Description: (§1) The Lactococcus lactis KdcA and S. cerevisiae and P. stipitis PDCs were cloned into yeast expression vector p415 under the control of TEF promoter. The host strain was a PDC1 deletion strain. Crude extracts were prepared for enzymatic assays by incubating cell pellet with CelLytic (Sigma), followed by bead beating. The decarboxylase reaction was performed in 100 mM Citrate Phosphate buffer with 1 mM Thiamine diphosphate, 1 mM MgCl2 and 50 μM to 20 mM aldehyde. The assay was coupled to an alcohol dehydrogenase which enabled continuous monitoring of NADH or NADPH oxidation at 340 nm.
NADH dependent coupled assays with yeast ADH1 were carried out to determine the decarboxylase activity of yeast and heterologous enzymes on the substrate 2 keto butyrate (2KB). 2KB is an intermediate in the production of 2-methylbutanol. A high decarboxylase activity on 2KB can lead to its conversion to propanal and reduce the yield of 2-MBO. […] (See FIG. 25 a-g.) The enzyme with the lowest Km for 2-ketobutyrate is yeast PDC1 and therefore the corresponding gene needs to be deleted in the 2-MBO production strain (data not shown).

[8] = Keto acid decarboxylase activity on pyruvate, crude extracts; assay type: biochemical; conditions: crude extract, S. cerevisiae PDC1 deletion host; sigmoidal curves
Description: as §1
Pyruvate is the target for multiple enzymes and a decarboxylation of the compound can lead to the production of acetaldehyde and subsequently ethanol. To prevent decarboxylation of pyruvate and increase 2-MBO production, a keto acid decarboxylase with a very high Km for pyruvate is ideal. […] The kinetic curves obtained with pyruvate as substrate were sigmoidal. This could be due to the fact that there are multiple enzymes in the crude extract with different Km for pyruvate. The final curve is therefore the superposition of individual curves. Absolute Km values […]. (FIG. 26.)

[9] = Keto acid decarboxylase activity on 2-keto-3-methylvalerate, PDC/KDC-ADH6 coupled assay with crude extracts; assay type: biochemical; conditions: for Vmax 2 keto 3 methyl valerate / Km: crude extract; for Vmax 2 keto 3 methyl valerate: S. cerevisiae PDC1 deletion host; for Km: enzyme expressed from p415 TEF in S. cerevisiae PDC1 deletion strain, read-out: Km 2 keto 3 methyl valerate
Description: as §1
The substrate specificity of the crude extract overexpressing different PDC/Kdcs was tested with a broad range of aldehydes. This included acetaldehyde, butyraldehyde and 2-methylbutyraldehyde. The concentration of the aldehydes was varied from 50 μM to 20 mM to determine the Km and Vmax values.
2-keto-3-methylvalerate (2K3MV) was tested for decarboxylation and subsequent reduction using PDC/KDC-ADH6 coupled assays.

## CCO [Ethanol, reference compound]
[1]
  Reid Vapor Pressure: ~8.2^A psi
[2]
  Energy Content: 84,519 BTU/gal
  Reid Vapor Pressure: 2.3 psi
[2]; extrapolated from tests on blended fuels (blending octanes)
  Pump Octane (R + M)/2: 130.9
[3]
  Boiling Point, max: 79 °C
  Flash Point, min: 13 °C
  Freezing Point, max: −114 °C
[4]
  Energy Content: 111,052 BTU/gal
[4]; RBOB with Pump Octane 80.85 and RVP 7.37
  Pump Octane (R + M)/2: 85.9
[5]
  Fuel Solubility in Water: 100 wt %
  Water Solubility in Fuel: 100 wt %

B1: ADH1: Saccharomyces cerevisiae alcohol dehydrogenase ADH1, SEQ ID NO: 67 (protein, listed as Saccharomyces cerevisiae)
chain: MSIPETQKGVIFYESHGKLEYKDIPVPKPKANELLINVKYSGVCHTDLHAWHGDWPLPVKLPLVGGHEGAGVVVGMGENVKGWKIGDYAGIKWLNGSCMACEYCELGNESNCPHADLSGYTHDGSFQQYATADAVQAAHIPQGTDLAQVAPILCAGITVYKALKSANLMAGHWVAISGAAGGLGSLAVQYAKAMGYRVLGIDGGEGKEELFRSIGGEVFIDFTKEKDIVGAVLKATDGGAHGVINVSVSEAAIEASTRYVRANGTTVLVGMPAGAKCCSDVFNQVVKSISIVGSYVGNRADTREALDFFARGLVKSPIKVVGLSTLPEIYEKMEKGQIVGRYVVDTSK
[6]
  fold less active on 2-methyl butaraldehyde than acetaldehyde: ~5000 fold

B2: P. stipitis PDC 3/6: Pyruvate decarboxylase (PDC6) (PDC3) [Pichia stipitis], SEQ ID NO: 53 (protein, listed as Pichia stipitis)
chain: MTPVQETIRLPGTSSPTVPENVTLGEYLFLRISQANPKLRSIFGIPGDFNVDLLEHLYSPVVAGRDIKFIGLCNELNGAYTADGYSRAIGGLSTFISTFGVGELSAINGIAGSFAEFSPVLHIVGTTSLPQRDHAINGSDVRNHHHLIQNKNPLCQPNHDVYKKMIEPISVIQESLDSDLQRNMEKIDRVLVKILQESRPGYLFIPCDITNLIVPSYRLYETPLPLEIQLTTSGVEVLEDVVDAILFRLYKSKNPSLLSDCLTTRFNLQDKLNTLVAKLPSNFVKLFSTNMARNIDESLSNFVGLYFGIGSSSKEVSRQLERNTDFLINLGYFNAETTTAGYSNDFSNIEEYIEINPDYIKVNEHIINIKNPESGKRLFSMGQLLDALLFKLDLNKIENINNNNISYKFFPPTLYEQDNNTDYIPQTKLVDYLNENLQPGDLLVMDTMSFCFALPDIMLPQGVQLLTQNYYGSIGYALPSTFGATMAVNDLGSDRRIILIEGDGAAQMTIQELSSFLKYKEFLPNMPKIFLINNDGYTVERMIKGPTRSYNDINGEWSWTQLLGVFGDKEQKYHSTALLRNVNEFNKYFEFQRQTDNSKLEFIELIAGKYDCPLRFSEMFCKK
[7]
  Vmax 2 keto butyrate: 5389 µM/min/mg
  Km: 6.51 mM
[7]; relative to L. lactis KdcA
  Vmax on 2 keto butyrate, fold higher than KDCA: about 3.4 fold
[8]
  Vmax Pyruvate: 12624 µM/min/mg
[9]
  Vmax 2 keto 3 methyl valerate: 3359. uM/min/mg
  Km: 0.84 mM
[9]; listed as P. stipitis PDC3/6
  Km: 0.84 mM
[9]; relative to L. lactis KdcA
  Vmax on 2-keto-3-methylvalerate, fold higher than KdcA: 3.4 fold

B3: L. lactis KDCA: Branched-chain alpha-ketoacid decarboxylase [Lactococcus lactis], SEQ ID NO: 61 (protein, listed as Lactococcus lactis)
chain: MYTVGDYLLDRLHELGIEEIFGVPGDYNLQFLDQIISREDMKWIGNANELNASYMADGYARTKKAAAFLTTFGVGELSAINGLAGSYAENLPVVEIVGSPTSKVQNDGKFVHHTLADGDFKHFMKMHEPVTAARTLLTAENATYEIDRVLSQLLKERKPVYINLPVDVAAAKAEKPALSLEKESSTTNTTEQVILSKIEESLKNAQKPVVIAGHEVISFGLEKTVTQFVSETKLPITTLNFGKSAVDESLPSFLGIYNGKLSEISLKNFVESADFILMLGVKLTDSSTGAFTHHLDENKMISLNIDEGIIFNKVVEDFDFRAVVSSLSELKGIEYEGQYIDKQYEEFIPSSAPLSQDRLWQAVESLTQSNETIVAEQGTSFFGASTIFLKSNSRFIGQPLWGSIGYTFPAALGSQIADKESRHLLFIGDGSLQLTVQELGLSIREKLNPICFIINNDGYTVEREIHGPTQSYNDIPMWNYSKLPETFGATEDRVVSKIVRTENEFVSVMKEAQADVNRMYWIELVLEKEDAPKLLKKMGKLFAEQNK
[7]
  Vmax 2 keto butyrate: 2053.0 µM/min/mg
  Km: 6.05 mM
[8]
  Vmax Pyruvate: 10069 µM/min/mg
[9]
  Vmax 2 keto 3 methyl valerate: 987.3 µM/min/mg
  Km: 3.75 mM
[9]; listed as KDCA
  Km: 3.7 mM
